The results in this text go back to WO2018134389A1.

pKd: −log10 of the molar value. Where two headings read alike, the source gives them in different places.

For orientation: pKd means the negative decadic logarithm of the Kd, by convention in mol/L.

Test [1] has as its target DC-SIGN ECD immobilised on a streptactin-functionalised SPR surface (human) (UniProt Q9NNX6).
The target is the same in test [2]. This is another data set of the same source.

Sequence of DC-SIGN ECD immobilised on a streptactin-functionalised SPR surface (human) (Q9NNX6 59-404): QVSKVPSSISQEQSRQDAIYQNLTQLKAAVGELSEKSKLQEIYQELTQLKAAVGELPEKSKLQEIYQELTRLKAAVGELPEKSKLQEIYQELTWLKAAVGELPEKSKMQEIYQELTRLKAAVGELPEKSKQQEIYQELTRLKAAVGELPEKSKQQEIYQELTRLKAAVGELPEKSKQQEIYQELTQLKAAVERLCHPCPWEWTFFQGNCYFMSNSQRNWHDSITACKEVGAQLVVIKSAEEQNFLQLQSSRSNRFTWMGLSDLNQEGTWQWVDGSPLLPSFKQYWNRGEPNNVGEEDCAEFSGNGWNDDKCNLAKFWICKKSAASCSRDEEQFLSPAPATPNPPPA
Sequence of HCMV gB treated with a(1-2,3,6)-mannosidase (P13201 25-907 limits assumed): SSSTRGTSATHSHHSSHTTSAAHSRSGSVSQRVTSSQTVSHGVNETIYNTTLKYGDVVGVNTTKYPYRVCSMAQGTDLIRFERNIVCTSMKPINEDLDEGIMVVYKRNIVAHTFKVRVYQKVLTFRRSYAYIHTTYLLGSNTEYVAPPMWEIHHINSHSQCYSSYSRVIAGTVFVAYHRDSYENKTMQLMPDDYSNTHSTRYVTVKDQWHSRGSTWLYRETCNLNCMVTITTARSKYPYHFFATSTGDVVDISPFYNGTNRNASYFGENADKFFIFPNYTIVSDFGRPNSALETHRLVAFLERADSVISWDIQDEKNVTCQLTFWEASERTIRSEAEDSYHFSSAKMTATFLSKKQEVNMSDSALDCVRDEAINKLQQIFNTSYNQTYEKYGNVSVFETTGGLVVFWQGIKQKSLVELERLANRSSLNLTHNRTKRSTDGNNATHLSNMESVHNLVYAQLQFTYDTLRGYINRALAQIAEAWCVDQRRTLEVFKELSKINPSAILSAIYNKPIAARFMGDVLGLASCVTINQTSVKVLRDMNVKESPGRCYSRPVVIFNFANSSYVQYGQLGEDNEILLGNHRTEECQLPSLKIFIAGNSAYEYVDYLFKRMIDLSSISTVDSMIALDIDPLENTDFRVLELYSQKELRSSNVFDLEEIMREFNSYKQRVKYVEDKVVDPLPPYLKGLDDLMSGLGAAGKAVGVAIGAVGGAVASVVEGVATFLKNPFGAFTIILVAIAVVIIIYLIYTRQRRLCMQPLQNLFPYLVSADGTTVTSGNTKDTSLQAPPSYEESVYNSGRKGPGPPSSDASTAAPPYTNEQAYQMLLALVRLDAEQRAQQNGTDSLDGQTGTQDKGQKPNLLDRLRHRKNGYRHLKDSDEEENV
Sequence of CHO-derived recombinant CMV glycoprotein B (soluble recombinant HCMV gB), untreated (P13201 25-907 limits assumed): as above

Consider “CHO-derived recombinant CMV glycoprotein B (soluble recombinant HCMV gB), untreated (from UniProt P13201 25-907) (ligand)”, for which the pKd in test [1] was 10.85.

In turn, “HCMV gB treated with a(1-2,3,6)-mannosidase (from UniProt P13201 25-907) (ligand)” showed a pKd in test [2] of 9.83.
